Reference: patent publication US20250340630A1 (SICHUAN KELUN BIOTECH BIOPHARMACEUTICAL, published 2025)
Numbering of substitutions follows the chain as printed. Where two headings read alike, the source gives them in different places. Values belong to the binder of their own block, whether it stands above or below them.

Assays:
human Claudin18.2 [1] = target: T1, human Claudin18.2 (human, UniProt P56856-2 1-261); assay: cell-based or functional assay
human Claudin18.2 [2] = target: T1, human Claudin18.2; assay: cell-based or functional assay; remark: listed apart in the source
human Claudin18.2 [3] = target: T1, human Claudin18.2; assay: cell-based or functional assay; remark: listed apart in the source
human Claudin18.2 [4] = target: T1, human Claudin18.2; assay: cellular ELISA on fixed L929-Claudin 18.2 cells
Protocol: (§1) Human Claudin18.2 is a four transmembrane protein and has a complex structure. Cellular ELISA was thus carried out to maintain the structure of Claudin18.2. […] The cells were resuspended and adjusted to 2×10⁵/mL and 100 μL of the resuspension was plated into 96 well plate and incubated overnight at 37° C. The next day, the media was removed, and the plate was washed with PBS once. 100 μL/well 4% formaldehyde was added to the plate. After 30 min of incubation at room temperature, formaldehyde was removed, followed by washing twice with PBS. Blocking buffer (PBS containing 2% BSA) was then added to the plate at 100 μL/well, and incubated at 37° C. for 2 h. After removal of blocking buffer, 100 μL/well of serially diluted antibodies (starting from 1 μM, with 4-fold dilution, for a total of 11 concentrations) were added to the corresponding wells, which were incubated at 37° C. for 2h afterwards. The plate was washed with 250 μL PBST for 5 times, and was allowed to stand for 2 min each time. […] The plate was incubated at 37° C. for 1 h and washed with 250 μL PBST 6 times, wherein the plate was allowed to stand for 2 min each time. 100 μL/well of TMB solution (Thermo, 34029) was added. […] The absorbance at 450 nm was read on a plate reader (MD, SpectraMax M2) and the results were subjected to curve fitting by Graphpad Prism.

human Claudin18.2 [5] = target: T1, human Claudin18.2; assay: cellular ELISA on fixed L929-Claudin 18.2 cells; remark: listed apart in the source
Protocol: Human Claudin18.2 is a four transmembrane protein and has a complex structure. Cellular ELISA was thus carried out to maintain the structure of Claudin18.2. […] The cells were resuspended and adjusted to 2×10⁵/mL and 100 μL of the resuspension was plated into 96 well plate and incubated overnight at 37° C. The next day, the media was removed, and the plate was washed with PBS once. 100 μL/well 4% formaldehyde was added to the plate. After 30 min of incubation at room temperature, formaldehyde was removed, followed by washing twice with PBS. Blocking buffer (PBS containing 2% BSA) was then added to the plate at 100 μL/well, and incubated at 37° C. for 2 h. After removal of blocking buffer, 100 μL/well of serially diluted antibodies (starting from 1 μM, with 4-fold dilution, for a total of 11 concentrations) were added to the corresponding wells, which were incubated at 37° C. for 2h afterwards. The plate was washed with 250 μL PBST for 5 times, and was allowed to stand for 2 min each time. […] The plate was incubated at 37° C. for 1 h and washed with 250 μL PBST 6 times, wherein the plate was allowed to stand for 2 min each time. 100 μL/well of TMB solution (Thermo, 34029) was added. The reactions were incubated at 37° C. for 20 min and stopped with 50 μL 2 mol/L H₂SO₄. The absorbance at 450 nm was read on a plate reader (MD, SpectraMax M2) and the results were subjected to curve fitting by Graphpad Prism.

human Claudin18.2 [6] = target: T1, human Claudin18.2; assay: flow cytometry (IntelliCyt) on Ba/F3-Claudin18.2 cells
Excerpt: In order to evaluate the anti-Claudin18.2 humanized antibodies, codon optimized cDNAs of the heavy chains and the light chains of the candidate humanized antibodies from Example 6 were synthesized and ligated into pcDNA3.4 (by Nanjing Genscript Biotech Corporation). Expi293F cells (purchased from Thermo Incorporation) were co-transfected with pcDNA3.4 coding the heavy chain and light chain of each antibody. The antibodies were purified from the supernatant using protein A (MabSelect SuRe, GE). The affinity of the humanized antibodies to Claudin18.2 was determined using Ba/F3-Claudin18.2 cells which over-expressed human Claudin18.2. Ba/F3-Claudin18.2 cells (60000 in 10 ul buffer) were incubated with purified humanized antibodies on ice for 30 min, followed by washing with buffer (PBS+2% FBS) twice and addition of Alexa647-labeled goat-anti-human IgG Fc antibody (1:500 dilution). The cells were incubated on ice for another 30 min and analyzed by IntelliCyt.

human Claudin18.2 [7] = target: T1, human Claudin18.2; assay: cellular ELISA on NUGC-4 cells (endogenous human Claudin18.2)
Protocol: The cells were resuspended and adjusted to 2×10⁵/mL and 100 μL of the resuspension was plated into 96 well plate and incubated overnight at 37° C. The next day, the media was removed, and the plate was washed with PBS once. 100 μL/well 4% formaldehyde was added to the plate. After 30 min of incubation at room temperature, formaldehyde was removed, followed by washing twice with PBS. Blocking buffer (PBS containing 2% BSA) was then added to the plate at 100 μL/well, and incubated at 37° C. for 2 h. After removal of blocking buffer, 100 μL/well of serially diluted antibodies (starting from 1 μM, with 4-fold dilution, for a total of 11 concentrations) were added to the corresponding wells, which were incubated at 37° C. for 2h afterwards. The plate was washed with 250 μL PBST for 5 times, and was allowed to stand for 2 min each time. […] The plate was incubated at 37° C. for 1 h and washed with 250 μL PBST 6 times, wherein the plate was allowed to stand for 2 min each time. 100 μL/well of TMB solution (Thermo, 34029) was added. The reactions were incubated at 37° C. for 20 min and stopped with 50 μL 2 mol/L H₂SO₄. The absorbance at 450 nm was read on a plate reader (MD, SpectraMax M2) and the results were subjected to curve fitting by Graphpad Prism.

human Claudin18.1 [8] = target: T2, human Claudin18.1 (human, UniProt P56856 1-261); assay: flow cytometry, HEK293T-human Claudin 18.1 cells compared with HEK293T cells
T2 construct: whole, on cells; Presented on transfected cells; also called CLDN18.1
Protocol: The specificity of candidate antibodies was detected by FACS. […] After washing twice with PBS, the cells were resuspended with PBS containing 1% BSA. 300,000 cells for each cell line were added with the candidate antibodies at a final concentration of 1000 nM, mixed well, and incubated for 1 h at 4° C., protected from light. Then the cells were washed for three times with PBS and FITC-labeled anti-human Fc secondary antibody (BioLegend, 409322) was added, followed by 0.5h of incubation at 4° C. in the dark. Detection was performed by flow cytometry (Beckman, Cytoflex) after washing with PBS for three times.

human Claudin18.2 [9] = target: T1, human Claudin18.2; assay: cell-based or functional assay; remark: listed apart in the source
human Claudin18.2 [10] = target: T1, human Claudin18.2; assay: cell-based or functional assay; remark: listed apart in the source
human Claudin18.2 [11] = target: T1, human Claudin18.2; assay: flow cytometry on HEK293T-Claudin 18.2 cells
Protocol: HEK293T-Claudin 18.2 cells were detached and centrifuged, followed by washing for twice with PBS. And then the cells were resuspended in PBS containing 1% BSA and were plated into 96-well tip bottom plate at 300000 cells per well in a volume of 50 μl for 20 wells in total. […] Human IgG was served as negative control. The reactions were mixed well and incubated for 1 h at 4° C. in the dark. Following by three times of washing with PBS, the FITC-labelled anti-human Fc secondary antibody (Biolegend, 409322) was added and incubated for 0.5h in the dark. Detection was performed by flow cytometry (Beckman, Cytoflex) after washing for three times with PBS.

human Claudin18.2 [12] = target: T1, human Claudin18.2; assay: cellular ELISA on fixed L929-Claudin 18.2 cells; remark: listed apart in the source
Protocol: as §1

human Claudin18.1 [13] = target: T2, human Claudin18.1; assay: flow cytometry on Ba/F3-Claudin18.1 cells
Protocol: (§2) The affinity of the candidates to Claudin18.2 was measured using FACS. […] Ba/F3-Claudin18.1 and Ba/F3-Claudin18.2 cells were incubated with the purified mouse antibodies at various concentrations on ice for 30 min and mouse IgG was used as negative control (Thermo Fisher, Cat: 31903), followed by washing with FACS buffer (PBS+2% FBS) twice.

human Claudin18.2 [14] = target: T1, human Claudin18.2; assay: flow cytometry on Ba/F3-Claudin18.2 cells, purified mouse antibody
Protocol: as §2

human Claudin18.2 [15] = target: T1, human Claudin18.2; assay: flow cytometry on Ba/F3-Claudin18.2 cells

CDC activity on HEK293T-Claudin 18.2 cells, fold against IMAB362 (human Claudin18.2 [1]): 3.5 fold
ADCC EC50, Ba/F3-Claudin18.2 target cells, NK-92MI_mCD16 effectors (human Claudin18.2 [2]): 0.041 mg/L
ADCC EC50 on HEK293T-Claudin 18.2 cells (NK92MI-CD16a, LDH) (human Claudin18.2 [3]): 0.0528 mg/L
ADCC EC50 on KATOIII-Claudin 18.2 cells (NK92MI-CD16a, LDH) (human Claudin18.2 [3]): 0.00359 mg/L
ADCC EC50 on L929-Claudin 18.2 cells (NK92MI-CD16a, LDH) (human Claudin18.2 [3]): 0.00239 mg/L
ADCC EC50 on NUGC-4 cells (NK92MI-CD16a, LDH) (human Claudin18.2 [3]): 0.134 mg/L
EC50 (human Claudin18.2 [4]): 0.1 nM
EC50 (human Claudin18.2 [5]): 0.09 nM
Max Signal Value (OD450) (human Claudin18.2 [5]): 0.8 OD450
Max MFI (human Claudin18.2 [6]): 1.13e+07 MFI
EC50 (human Claudin18.2 [7]): 0.413 nM
binding result (human Claudin18.1 [8]): no binding (tested: 1000 nM)
B1: humanized antibody 1E9.2-hz11 (antibody, human IgG1, kappa, V domains shown)
VH: EVQLVESGGGLVKPGGSLRLSCAASGFSFSNSAMSWVRQAPGKGLEWVSTISSGDSYTYYADSVKGRFTISRDNAKNSLYLQMNSLRAEDTAVYYCARQGYGNALDYWGQGTLVTVSS
VL: DIVMTQSPDSLAVSLGERATINCKSSQSLLNSGNQKNYLTWYQQKPGQPPKLLIYWSSTRESGVPDRFSGSGSGTDFTLTISSLQAEDFAVYYCQNDYYYPLTFGGGTKVEIKR
notes: human IgG1 / kappa
ADCC Max killing rate %, Ba/F3-Claudin18.2 target cells (human Claudin18.2 [2]): 60.2%

CDC EC50 on HEK293T-Claudin 18.2 cells (guinea pig serum, CellTiter-Glo) (human Claudin18.2 [9]): 1.36 mg/L
ADCC EC50 on HEK293T-Claudin 18.2 cells (NK92MI-CD16a, LDH) (human Claudin18.2 [10]): 0.0677 mg/L
EC50 (human Claudin18.2 [11]): 5.77 nM
EC50 (human Claudin18.2 [12]): 0.12 nM
EC50 (human Claudin18.2 [5]): 0.18 nM
Max Signal Value (OD450) (human Claudin18.2 [5]): 0.8 OD450
binding result (human Claudin18.1 [8]): no binding (tested: 1000 nM)
B2: humanized antibody 2C6.9-hz21 (antibody, human IgG1, kappa, V domains shown)
VH: QVQLQESGPGLVKPSETLSLTCTVSGFSLTRYGVSWIRQPPGKGLEWIGVIWGEGNTNYNPSLKSRVTISKDSSKSQVSLKLSSVTAADTAVYYCARVNFGNALDYWGQGTLVTVSS
VL: B1 VL with S57A, E61D, F89V, Y98F, Y99I, Y100F
notes: human IgG1 / kappa; also called 2C6.9.2hz21

EC50 (human Claudin18.2 [5]): 0.16 nM
Max Signal Value (OD450) (human Claudin18.2 [5]): 0.8 OD450
B3: humanized antibody 2C6.9-hz11 (antibody, human IgG1, kappa, V domains shown)
VH: B2 VH with E54D
VL: B1 VL with S57A, E61D, F89V, Y98F, Y99I, Y100F
notes: Human IgG1 / kappa constant regions; also called 2C6.9.2hz11

binding result (human Claudin18.1 [13]): no binding
EC50 (human Claudin18.2 [14]): 10.6 nM
Max MFI (human Claudin18.2 [14]): 6.11e+06 MFI
B4: mouse antibody 2C6.9 (antibody, V domains shown)
VH: QVQLKESGPGLVAPSQSLSITCTVSGFSLTRYGVSWVRQPPGKGLEWLGVIWGDGNTNFHSFLKSRLSISKDSSKSQVFLKLNSLQTDDTATYYCARVNFGNALDYWGQGTSVTVSS
VL: DIVMTQSPSSLTVTAGEEVTMSCKSSQSLLNSGNQKNYLTWYQQKPGQPPKLLIYWASTRDSGVPDRFTGSGSGTDFTLTISSVQSEDLAVYYCQNDFIFPLTFGAGTKLELK
notes: Purified from hybridoma; also called 2C6.9.2

ADCC EC50, Ba/F3-Claudin18.2 target cells, NK-92MI_mCD16 effectors (human Claudin18.2 [2]): 0.351 mg/L
CDC EC50 on HEK293T-Claudin 18.2 cells (guinea pig serum, CellTiter-Glo) (human Claudin18.2 [9]): 3.32 mg/L
ADCC EC50 on HEK293T-Claudin 18.2 cells (NK92MI-CD16a, LDH) (human Claudin18.2 [3]): 0.0336 mg/L
ADCC EC50 on KATOIII-Claudin 18.2 cells (NK92MI-CD16a, LDH) (human Claudin18.2 [3]): 0.0101 mg/L
ADCC EC50 on L929-Claudin 18.2 cells (NK92MI-CD16a, LDH) (human Claudin18.2 [3]): 0.0781 mg/L
ADCC EC50 on NUGC-4 cells (NK92MI-CD16a, LDH) (human Claudin18.2 [3]): 1.22 mg/L
ADCC EC50 on HEK293T-Claudin 18.2 cells (NK92MI-CD16a, LDH) (human Claudin18.2 [10]): 0.0577 mg/L
EC50 (human Claudin18.2 [15]): 18 nM
EC50 (human Claudin18.2 [11]): 8.22 nM
EC50 (human Claudin18.2 [4]): 0.18 nM
EC50 (human Claudin18.2 [12]): 0.15 nM
EC50 (human Claudin18.2 [7]): ~664 nM
B5: IMAB362 (antibody, V domains shown)
VH: QVQLQQPGAELVRPGASVKLSCKASGYTFTSYWINWVKQRPGQGLEWIGNIYPSDSYTNYNQKFKDKATLTVDKSSSTAYMQLSSPTSEDSAVYYCTRSWRGNSFDYWGQGTTLTVSS
VL: DIVMTQSPSSLTVTAGEKVTMSCKSSQSLLNSGNQKNYLTWYQQKPGQPPKLLIYWASTRESGVPDRFTGSGSGTDFTLTISSVQAEDLAVYYCQNDYSYPFTFGSGTKLEIKR
ADCC Max killing rate %, Ba/F3-Claudin18.2 target cells (human Claudin18.2 [2]): 54.2%
